Measurements from IntAct's records for PubMed 11331308.

B1: Alpha-parvin (Homo sapiens), Q9NVD7 (parent)
chain: MATSPQKSPSVPKSPTPKSPPSRKKDDSFLGKLGGTLARRKKAKEVSELQEEGMNAINLPLSPIPFELDPEDTMLEENEVRTMVDPNSRSDPKLQELMKVLIDWINDVLVGERIIVKDLAEDLYDGQVLQKLFEKLESEKLNVAEVTQSEIAQKQKLQTVLEKINETLKLPPRSIKWNVDSVHAKSLVAILHLLVALSQYFRAPIRLPDHVSIQVVVVQKREGILQSRQIQEEITGNTEALSGRHERDAFDTLFDHAPDKLNVVKKTLITFVNKHLNKLNLEVTELETQFADGVYLVLLMGLLEGYFVPLHSFFLTPDSFEQKVLNVSFAFELMQDGGLEKPKPRPEDIVNCDLKSTLRVLYNLFTKYRNVE
partner: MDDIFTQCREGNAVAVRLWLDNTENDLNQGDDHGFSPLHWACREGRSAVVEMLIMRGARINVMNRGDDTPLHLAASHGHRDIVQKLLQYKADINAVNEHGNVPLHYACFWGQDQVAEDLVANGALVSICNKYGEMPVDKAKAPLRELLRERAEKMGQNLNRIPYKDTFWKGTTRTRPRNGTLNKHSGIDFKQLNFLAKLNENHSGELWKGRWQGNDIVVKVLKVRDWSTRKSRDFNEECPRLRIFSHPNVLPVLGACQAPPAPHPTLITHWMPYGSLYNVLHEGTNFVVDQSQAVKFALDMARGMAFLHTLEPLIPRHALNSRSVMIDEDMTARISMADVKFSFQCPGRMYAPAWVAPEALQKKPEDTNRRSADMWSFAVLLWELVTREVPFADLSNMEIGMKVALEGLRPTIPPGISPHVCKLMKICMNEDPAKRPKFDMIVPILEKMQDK

Variants of: B1
Settings: with ilk_mouse Ilk

Row | Variant | effect of a mutation on the interaction
1 | MATSPQKSPSVPKSPTPKSPPSRKKDDSFLGKLGGTLARRKKAKEVSELQEEGMNAINLPLSPIPFELDPEDTMLEENEVRTMVDPNSRSDPKLQELMKVLIDWINDVLVGERIIVKDLAEDLYDGQVLQKLFEKLESEKLNVAEVTQSEIAQKQKLQTVLEKINETLKLPPRSIKWNVDSVHAKSLVAILHLLVALSQYFRAPIRLPDHVSIQVVVVQKREGILQSRQIQEEITGNTEALSGRHERDAFDTLFDHAPDKLNVVKKTLITDVNKHLNKLNLEVTELETQFADGVYLVLLMGLLEGYFVPLHSFFLTPDSFEQKVLNVSFAFELMQDGGLEKPKPRPEDIVNCDLKSTLRVLYNLFTKYRNVE [F271D] | disrupting interaction strength
